# ± gives the uncertainty stated by the source.
# B1: Protein S100-G, residues 1 to 79; numbered along this chain, P02633 (parent)
# chain: MSAKKSPEELKGIFEKYAAKEGDPNQLSKEELKLLLQTEFPSLLKGPSTLDELFEELDKNGDGEVSFEEFQVLVKKISQ
# B2: WW domain-containing transcription regulator protein 1, residues 116 to 162; numbered along this chain, Q9GZV5 (parent)
# chain: QSYDVTDELPLPPGWEMTFTATGQRYFLNHIEKITTWQDPRKAMNQP
# Variants of: B1
# Experiment: abundance fitness (aPCA) (normalised: wild type 0, dead -1); higher = more abundant; growth selection in yeast, the domain comes from the species named
# Settings: Bos taurus
row,Variant,abundance fitness
1,MSAKKSPEELKGIFEKYAAKEGDPNQLSKEELKLLLQTEFPSLLKGPSTLDELFEELDKNGDGEVSFEEFQVLVKKISP,0.254 ± 0.09
2,MSAKKSPEELKGIFEKYAAKEGDPNQLSKEELKLLLQTEFPSLLKGPSTLDELFEELDKNGDGEVSFEEFQVLVKKISM,0.026 ± 0.11
3,MSAKKSPEELKGIFEKYAAKEGDPNQLSKEELKLLLQTEFPSLLKGPSTLDELFEELDKNGDGEVSFEEFQVLVKKISI,-0.346 ± 0.13
4,MSAKKSPEELKGIFEKYAAKEGDPNQLSKEELKLLLQTEFPSLLKGPSTLDELFEELDKNGDGEVSFEEFQVLVKKISD,-0.191 ± 0.14
5,MSAKKSPEELKGIFEKYAAKEGDPNQLSKEELKLLLQTEFPSLLKGPSTLDELFEELDKNGDGEVSFEEFQVLVKKISY,-0.148 ± 0.11
6,MSAKKSPEELKGIFEKYAAKEGDPNQLSKEELKLLLQTEFPSLLKGPSTLDELFEELDKNGDGEVSFEEFQVLVKKISH,-0.048 ± 0.095
7,MSAKKSPEELKGIFEKYAAKEGDPNQLSKEELKLLLQTEFPSLLKGPSTLDELFEELDKNGDGEVSFEEFQVLVKKISV,-0.086 ± 0.1
8,MSAKKSPEELKGIFEKYAAKEGDPNQLSKEELKLLLQTEFPSLLKGPSTLDELFEELDKNGDGEVSFEEFQVLVKKISS,0.041 ± 0.072
9,MSAKKSPEELKGIFEKYAAKEGDPNQLSKEELKLLLQTEFPSLLKGPSTLDELFEELDKNGDGEVSFEEFQVLVKKISA,0.008 ± 0.088
10,MSAKKSPEELKGIFEKYAAKEGDPNQLSKEELKLLLQTEFPSLLKGPSTLDELFEELDKNGDGEVSFEEFQVLVKKISK,0.046 ± 0.12
11,MSAKKSPEELKGIFEKYAAKEGDPNQLSKEELKLLLQTEFPSLLKGPSTLDELFEELDKNGDGEVSFEEFQVLVKKISE,0.272 ± 0.15
12,MSAKKSPEELKGIFEKYAAKEGDPNQLSKEELKLLLQTEFPSLLKGPSTLDELFEELDKNGDGEVSFEEFQVLVKKISR,0.16 ± 0.1
13,MSAKKSPEELKGIFEKYAAKEGDPNQLSKEELKLLLQTEFPSLLKGPSTLDELFEELDKNGDGEVSFEEFQVLVKKISC,-0.032 ± 0.16
14,MSAKKSPEELKGIFEKYAAKEGDPNQLSKEELKLLLQTEFPSLLKGPSTLDELFEELDKNGDGEVSFEEFQVLVKKISW,-0.086 ± 0.15
15,MSAKKSPEELKGIFEKYAAKEGDPNQLSKEELKLLLQTEFPSLLKGPSTLDELFEELDKNGDGEVSFEEFQVLVKKIST,0.085 ± 0.078
16,MSAKKSPEELKGIFEKYAAKEGDPNQLSKEELKLLLQTEFPSLLKGPSTLDELFEELDKNGDGEVSFEEFQVLVKKISL,-0.017 ± 0.086
17,MSAKKSPEELKGIFEKYAAKEGDPNQLSKEELKLLLQTEFPSLLKGPSTLDELFEELDKNGDGEVSFEEFQVLVKKISG,0.074 ± 0.12
18,MSAKKSPEELKGIFEKYAAKEGDPNQLSKEELKLLLQTEFPSLLKGPSTLDELFEELDKNGDGEVSFEEFQVLVKKISN,-0.154 ± 0.1
19,MSAKKSPEELKGIFEKYAAKEGDPNQLSKEELKLLLQTEFPSLLKGPSTLDELFEELDKNGDGEVSFEEFQVLVKKYSQ,-0.104 ± 0.073
20,MSAKKSPEELKGIFEKYAAKEGDPNQLSKEELKLLLQTEFPSLLKGPSTLDELFEELDKNGDGEVSFEEFQVLVKKTSQ,-0.14 ± 0.064
21,MSAKKSPEELKGIFEKYAAKEGDPNQLSKEELKLLLQTEFPSLLKGPSTLDELFEELDKNGDGEVSFEEFQVLVKKSSQ,-0.165 ± 0.064
22,MSAKKSPEELKGIFEKYAAKEGDPNQLSKEELKLLLQTEFPSLLKGPSTLDELFEELDKNGDGEVSFEEFQVLVKKVSQ,-0.158 ± 0.077
23,MSAKKSPEELKGIFEKYAAKEGDPNQLSKEELKLLLQTEFPSLLKGPSTLDELFEELDKNGDGEVSFEEFQVLVKKWSQ,-0.176 ± 0.086
24,MSAKKSPEELKGIFEKYAAKEGDPNQLSKEELKLLLQTEFPSLLKGPSTLDELFEELDKNGDGEVSFEEFQVLVKKIPQ,0.258 ± 0.41
25,MSAKKSPEELKGIFEKYAAKEGDPNQLSKEELKLLLQTEFPSLLKGPSTLDELFEELDKNGDGEVSFEEFQVLVKKIAQ,0.245 ± 0.41
26,MSAKKSPEELKGIFEKYAAKEGDPNQLSKEELKLLLQTEFPSLLKGPSTLDELFEELDKNGDGEVSFEEFQVLVKKIMQ,-0.049 ± 0.44
27,MSAKKSPEELKGIFEKYAAKEGDPNQLSKEELKLLLQTEFPSLLKGPSTLDELFEELDKNGDGEVSFEEFQVLVKKIYQ,-1.23 ± 0.41
28,MSAKKSPEELKGIFEKYAAKEGDPNQLSKEELKLLLQTEFPSLLKGPSTLDELFEELDKNGDGEVSFEEFQVLVKKIGQ,-0.329 ± 0.47
29,MSAKKSPEELKGIFEKYAAKEGDPNQLSKEELKLLLQTEFPSLLKGPSTLDELFEELDKNGDGEVSFEEFQVLVKKIFQ,-0.25 ± 0.27
30,MSAKKSPEELKGIFEKYAAKEGDPNQLSKEELKLLLQTEFPSLLKGPSTLDELFEELDKNGDGEVSFEEFQVLVKKILQ,-0.188 ± 0.28

# Variants of: B2
# Experiment: as above
# Settings: Homo sapiens
row,Variant,abundance fitness
1,Y3I,0.274 ± 0.13
2,Y3M,0.182 ± 0.11
3,Y3C,0.262 ± 0.1
4,Y3Q,-0.2 ± 0.031
5,Y3H,0.013 ± 0.14
6,Y3P,0.087 ± 0.28
7,Y3L,-0.323 ± 0.48
8,Y3V,-0.472 ± 0.48
9,E8V,-0.118 ± 0.035
10,E8M,0.065 ± 0.055
11,E8P,-0.09 ± 0.039
12,E8R,-0.109 ± 0.04
13,E8G,-0.07 ± 0.03
14,E8C,-0.163 ± 0.057
15,E8F,-0.302 ± 0.066
16,E8D,-0.084 ± 0.056
17,E8K,-0.005 ± 0.041
18,E8S,-0.071 ± 0.039
19,E8I,-0.274 ± 0.087
20,E8N,-0.128 ± 0.056
21,E8L,-0.253 ± 0.041
22,E8A,-0.027 ± 0.026
23,E8Y,-0.248 ± 0.067
24,E8T,0.01 ± 0.047
25,E8W,-0.78 ± 0.062
26,Q1I,0.001 ± 0.38
27,Q1H,-0.704 ± 0.32

row,Variant,abundance fitness
1,Q1A,-0.519 ± 0.15
2,Q1E,-0.182 ± 0.062
3,Q1V,-0.45 ± 0.09
4,Q1T,-0.492 ± 0.18
5,Q1R,-0.365 ± 0.065
6,Q1G,-0.163 ± 0.059
7,Q1M,0.26 ± 0.1
8,Q1D,-0.005 ± 0.069
9,Q1Y,-0.132 ± 0.13
10,D4P,-0.071 ± 0.051
11,D4G,-0.198 ± 0.036
12,D4H,-0.207 ± 0.061
13,D4E,-0.072 ± 0.043
14,D4A,-0.083 ± 0.035
15,D4T,-0.162 ± 0.048
16,D4C,0.049 ± 0.045
17,D4L,-0.147 ± 0.031
18,D4Y,0.048 ± 0.057
19,D4N,0.053 ± 0.033
20,D4W,-0.381 ± 0.059
21,D4Q,-0.404 ± 0.053
22,D4R,-0.151 ± 0.025
23,D4S,-0.089 ± 0.039
24,D4F,-0.152 ± 0.062
25,D4I,-0.189 ± 0.063
26,D4K,-0.014 ± 0.043
27,S2A,-0.255 ± 0.04

row,Variant,abundance fitness
1,S2K,-0.074 ± 0.065
2,S2C,-0.192 ± 0.043
3,S2D,0.057 ± 0.03
4,S2T,-0.092 ± 0.05
5,S2I,-0.026 ± 0.071
6,S2Y,-0.226 ± 0.07
7,S2E,-0.274 ± 0.055
8,S2M,-0.017 ± 0.033
9,S2G,-0.034 ± 0.027
10,S2W,-0.406 ± 0.062
11,S2F,-0.035 ± 0.055
12,S2L,-0.093 ± 0.04
13,S2Q,-0.167 ± 0.065
14,S2N,0.361 ± 0.081
15,S2V,-0.148 ± 0.044
16,S2H,0.149 ± 0.32
17,S2P,-0.45 ± 0.066
18,P10S,-0.109 ± 0.025
19,P10H,-0.181 ± 0.053
20,P10Q,-0.123 ± 0.048
21,P10W,-0.393 ± 0.037
22,P10T,-0.045 ± 0.035
23,P10G,-0.12 ± 0.028
24,P10L,-0.25 ± 0.024
25,P10E,-0.058 ± 0.027

# From the Human Domainome abundance scans (Beltran et al. 2025)
